# Assay results reported in patent US12616740B2, “Methods of using a GIP/GLP1 co-agonist for therapy” (ELI LILLY AND COMPANY, priority 2018, dated 2026).
# How the values were obtained:
# Format in all cases: in vivo, human
# [1] = system: patients with T2DM who have inadequate glycemic control; test: NCT03131687: mean fasting glucose at Week 26; set-up: Mean change from baseline, fasting glucose: unit not given here
# Method: (§1) Clinical Study (NCT03131687) Supporting Maintenance Dose Embodiments A 6-month (26-week) Phase 2 double-blind clinical study is designed to evaluate the safety, efficacy, and PK/PD of 4 dose levels (1 mg, 5 mg, 10 mg and 15 mg respectively) of tirzepatide once weekly by subcutaneous injection compared with dulaglutide 1.5 mg. once weekly (QW) and placebo QW in patients with T2DM who have inadequate glycemic control with diet and exercise with or without a stable dose of metformin. Tirzepatide dose is up-titrated to the maintenance dose using the following weekly dose increments:
# (§2) The study also has a 4-week follow up period. In addition to safety and efficacy for treating T2DM, efficacy endpoints include the effect of tirzepatide on HbA1c, FBG, body weight, lipids, and waist circumference compared with placebo and with dulaglutide 1.5 mg. The study also evaluates the effect of tirzepatide on GI tolerability, hypoglycemia, hypersensitivity reactions, and pancreatic safety, as well as the development of treatment-emergent anti-drug antibodies. Model-based dose response analyses are performed to predict potential for significant HbA1c lowering and weight loss in longer studies. Statistical Analyses: Efficacy: The primary efficacy outcome of HbA1c change from baseline to the 26-week endpoint is analyzed using a Bayesian dose-response model. Analyses are performed on the intention to treat population (mITT) analysis set. Supportive analysis of the primary efficacy outcome for the mITT dataset are the model for post-baseline measures (MMRM) with body mass index (BMI) (<30 kg/m^2, ≥30 kg/m^2), metformin use, treatment, visit, and treatment-by-visit interaction as fixed effects, baseline HbA1c as a covariate, and patient as a random effect. The mean weight change from baseline at 12 and 26 weeks, along with the mean change from baseline of HbA1c at 12 weeks, is analyzed using similar dose-response models as the primary analyses. The percentages of patients with ≥5% or ≥10% body weight loss, reaching the HbA1c target of ≤6.5% or ≤7.0% at 26 weeks, or requiring rescue therapy are analyzed using logistic regression with fixed effects of treatment and strata, and baseline as a covariate. The changes from baseline in FBG (fasting blood glucose), SMBG (self-monitored blood glucose) levels, waist circumference, and mean percentage change in lipids from baseline to 12 and 26 weeks are analyzed using a similar MMRM to the one used for the primary analyses. Table Abbreviations: Dula 1.5 mg=dulaglutide 1.5 mg once weekly; LY means tirzepatide, and LY 1 mg=tirzepatide 1 mg once weekly; LY 5 mg=5 mg once weekly; LY 10 mg=escalation dose group tirzepatide once weekly with highest dose of 10 mg; LY 15 mg=escalation dose group of tirzepatide once weekly with highest dose 15 mg; LOCF=last observation-carried-forward; N=number of patients; pbo=placebo; Week 26=mITT on-treatment data at Week 26 excluding data after study drug discontinuation or rescue drug initiation; mITT=modified intent-to-treat; SD=standard deviation. For Table 4, n=number of patients in the population with baseline and post-baseline value at the specified time point. For Table 6, LY10 mg=escalation dose group tirzepatide, once weekly with highest dose of 10 mg; escalation dose: (5 mg weeks 0 and 1), LY15 mg=escalation dose group tirzepatide, once weekly with highest dose of 15 mg; escalation dose: (5 mg weeks 0 and 1; 10 mg weeks 2 to 5); N=number of patients in specified group, m=number of patients who experienced new event during interval, FolUp=follow up, T/Wk=Time range, (week) and %=means percent patients spending at least some time in treatment group who experienced new event during interval. For Table 7, n is the number of patients with events meeting the criteria; N is number of patients in the population; % is percent of patients in treatment group experiencing the event.
# [2] = NCT03131687: decrease appetite (reported event)
# Method: as §1, §2
# [3] = NCT03311724: nausea, vomiting and diarrhea, new events per interval; details: LY12 mg Group 3 (tirzepatide 4 mg × 4, 8 mg × 4, 12 mg × 4 once weekly), N = 29
# Description: This is a 12-week treatment with a 1 week screening (Visit 1) followed by a 1 week lead-in (Visit 2), then 12 weeks of treatment (Visits 3-10, including telephone visits), then followed by 4-week safety follow-up. It is a Phase 2 study designed to examine the efficacy and tolerability of subcutaneously once-weekly tirzepatide compared with placebo in patients with type 2 diabetes who have inadequate glycemic control with diet and exercise alone or with a stable dose of metformin. The study was designed per below and conducted to refine the escalation scheme.
# [4] = LY1 mg = tirzepatide 1 mg once weekly, N 44
# [5] = LY5 mg = tirzepatide 5 mg once weekly, N 48
# [6] = LY10 mg = tirzepatide once weekly, highest dose 10 mg, N 44
# [7] = LY15 mg = tirzepatide once weekly, highest dose 15 mg, N 35
# [8] = LY1 mg = tirzepatide 1 mg once weekly, N = 52
# [9] = LY5 mg = tirzepatide 5 mg once weekly, N = 55
# [10] = LY10 mg = tirzepatide once weekly, highest dose 10 mg, N = 51
# [11] = LY15 mg = tirzepatide once weekly, highest dose 15 mg, N = 53
substance,measurement,setting,value
tirzepatide [LY],"Mean change from baseline, fasting glucose",[1]; [4],−6.2
same,Mean glucose value (fasting),[1]; [4],154.9 mg/dL
same,"Mean change from baseline, fasting glucose",[1]; [5],−46.7
same,Mean glucose value (fasting),[1]; [5],126.5 mg/dL
same,"Mean change from baseline, fasting glucose",[1]; [6],−66.9
same,Mean glucose value (fasting),[1]; [6],104.8 mg/dL
same,"Mean change from baseline, fasting glucose",[1]; [7],−56.8
same,Mean glucose value (fasting),[1]; [7],110.3 mg/dL
same,fasting serum glucose (in words),"[1]; tirzepatide 5 mg, 10 mg, and 15 mg doses",significantly decrease fasting serum glucose compared with placebo and dulaglutide 1.5 mg
same,"Decrease Appetite (reported): n, number of patients with events",[2]; [8],n = 2;
same,Decrease Appetite (reported): percent of patients in treatment group experiencing the event,[2]; [8],3.8%
same,"Decrease Appetite (reported): n, number of patients with events",[2]; [9],n = 10;
same,Decrease Appetite (reported): percent of patients in treatment group experiencing the event,[2]; [9],18.2%
same,"Decrease Appetite (reported): n, number of patients with events",[2]; [10],n = 13;
same,Decrease Appetite (reported): percent of patients in treatment group experiencing the event,[2]; [10],25.5%
same,"Decrease Appetite (reported): n, number of patients with events",[2]; [11],n = 10;
same,Decrease Appetite (reported): percent of patients in treatment group experiencing the event,[2]; [11],18.9%
same,"Nausea Vomiting and Diarrhea: m, number of patients who experienced new event during interval",[3]; Follow-up,m = 1;
same,"Nausea Vomiting and Diarrhea: m, number of patients who experienced new event during interval",[3]; Overall,m = 14;
same,"Nausea Vomiting and Diarrhea: m, number of patients who experienced new event during interval",[3]; T/Wk 0,m = 9;
same,"Nausea Vomiting and Diarrhea: m, number of patients who experienced new event during interval",[3]; T/Wk 1,m = 5;
same,"Nausea Vomiting and Diarrhea: m, number of patients who experienced new event during interval",[3]; T/Wk 2,m = 1;
same,"Nausea Vomiting and Diarrhea: m, number of patients who experienced new event during interval",[3]; T/Wk 3,m = 3;
same,"Nausea Vomiting and Diarrhea: m, number of patients who experienced new event during interval",[3]; T/Wk 4,m = 3;
same,"Nausea Vomiting and Diarrhea: m, number of patients who experienced new event during interval",[3]; T/Wk 5,m = 0;
same,"Nausea Vomiting and Diarrhea: m, number of patients who experienced new event during interval",[3]; T/Wk 6,m = 2;
same,"Nausea Vomiting and Diarrhea: m, number of patients who experienced new event during interval",[3]; T/Wk 7,m = 1;
same,"Nausea Vomiting and Diarrhea: m, number of patients who experienced new event during interval",[3]; T/Wk 8,m = 4;
same,"Nausea Vomiting and Diarrhea: m, number of patients who experienced new event during interval",[3]; T/Wk 9,m = 1;
same,"Nausea Vomiting and Diarrhea: m, number of patients who experienced new event during interval",[3]; T/Wk 10,m = 1;
same,"Nausea Vomiting and Diarrhea: m, number of patients who experienced new event during interval",[3]; T/Wk 11,m = 0;
